The supplement of paper PMC7877785
± gives the uncertainty stated by the source.

Assay: self-splicing fitness, log relative to wild type (ln ratio); higher = more splicing; Tetrahymena group I intron in knt gene, E. coli kanamycin selection, DiMSum; sequences stand for … in CUCUCU…GGAGGGAAAAGUUAUCAGGCAUGCACCUGGUAGCUAGUCUUUAAACCAAUAGAUUGCAUCGGUUUAAAAGGCAAGACCGUCAAAUUGCGGGAAAGGGGUCAACAGCCGUUCAGUACCAAGUCUCAGGGGAAACUUUGAGAUGGCCUUGCAAAGGGUAUGGUAAUAAGCUGACGGACAUGGUCCUAACCACGCAGCCAAGUCCUAAGUCAACAGAUCUUCUGUUGAUAUGGAUGCAGUUCACAGACUAAAUGUCGGUCGGGGAAGAUGUAUUCUUCUCAUAAGAUAUAGUCGGACCUCUCCUUAAUGGGAGCUAGCGGAUGAAGUGAUGCAACACUGGAGCCGCUGGGAACUAAUUUGUAUGCGAAAGUAUAUUGAUUAGUUUUGGAGUACUCGUGGUCG
How it was run: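 Pooled colonies went to amplicon sequencing on an Illumina HiSeq 2500 after six replicate transformations. The plates were LB agar with 100 μg/mL carbenicillin, 50 μM IPTG and 0.2% rhamnose, with or without 25 μg/mL kanamycin, incubated overnight at 37°C or 30°C. The E. coli BL21(DE3) library had all eight P1ex-region intron nucleotides randomised, the intron placed in the knt kanamycin-resistance gene on pET-22b(+). DiMSum fitness is the error-weighted combination of replicate fold changes, kanamycin against none, normalised to wild type.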

| Sequence | self-splicing fitness (ln) (30 °C) | self-splicing fitness (ln) (37 °C) |
| --- | --- | --- |
| UGCCAGCAAUAUUACGGAUG | -1.21 ± 0.093 | -0.248 ± 0.12 |
| UGCCAGCAAUAUUACGGCUG | -3.47 ± 0.15 | -2.17 ± 0.16 |
| UGCCAGCAAUAUUACGGUCG | -1.14 ± 0.068 | -0.0276 ± 0.075 |
| UGCCAGCAAUAUUACGGUGC | -4.01 ± 0.18 | -2.14 ± 0.21 |
| UGCCAGCAAUAUUACGGUUA | -0.355 ± 0.059 | 0.213 ± 0.066 |
| UGCCAGCAAUAUUACGUACU | 0.158 ± 0.14 | -1.19 ± 0.19 |
| UGCGAGCAAUAUUACGAACA | -1.47 ± 0.14 | 0.122 ± 0.18 |
| UGCGAGCAAUAUUACGACGG | -1.41 ± 0.15 | -0.347 ± 0.16 |
| UGCGAGCAAUAUUACGCAGA | -3.13 ± 0.37 | -1.84 ± 0.38 |
| UGCGAGCAAUAUUACGCAGG | -4.38 ± 0.46 | -2.18 ± 0.28 |
| UGCGAGCAAUAUUACGCAGU |  | -4.06 ± 0.39 |
| UGCGAGCAAUAUUACGCCUA | -2.48 ± 0.19 | -0.762 ± 0.16 |
| UGCGAGCAAUAUUACGCUGC | -3.09 ± 0.25 | -2.31 ± 0.29 |
| UGCGAGCAAUAUUACGCUUC | -3.96 ± 0.39 | -3.67 ± 0.39 |
| UGCGAGCAAUAUUACGGACA | -0.643 ± 0.14 | 0.226 ± 0.2 |
| UGCGAGCAAUAUUACGUACA | -2.18 ± 0.2 | 0.427 ± 0.21 |
| UGCGAGCAAUAUUACGUAUG | -3.11 ± 0.16 | -2.29 ± 0.21 |
| UGCGAGCAAUAUUACGUCUC | -0.82 ± 0.28 |  |
| UGCGAGCAAUAUUACGUGUG | -2.78 ± 0.18 | -2.15 ± 0.15 |
| UGCUAGCAAUAUUACGAAAA | -2.16 ± 0.15 | -1.72 ± 0.15 |
| UGCUAGCAAUAUUACGAACU | -1.12 ± 0.15 | -0.251 ± 0.15 |
| UGCUAGCAAUAUUACGAGUU | -1.64 ± 0.11 | 0.518 ± 0.12 |
| UGCUAGCAAUAUUACGAUCA | 0.384 ± 0.07 | 0.522 ± 0.094 |
| UGCUAGCAAUAUUACGAUGC | -4.2 ± 0.34 |  |
| UGCUAGCAAUAUUACGAUGU | -4.19 ± 0.46 | -2.59 ± 0.38 |
| UGCUAGCAAUAUUACGCAAU | -3.02 ± 0.3 | -2.31 ± 0.29 |

| Sequence | self-splicing fitness (ln) (30 °C) | self-splicing fitness (ln) (37 °C) |
| --- | --- | --- |
| UGCUAGCAAUAUUACGCACA | -1.12 ± 0.13 | 0.22 ± 0.11 |
| UGCUAGCAAUAUUACGCAUC | -3.95 ± 0.21 | -2.45 ± 0.17 |
| UGCUAGCAAUAUUACGCAUG | -3.03 ± 0.34 | -0.445 ± 0.19 |
| UGCUAGCAAUAUUACGCGAU | -4.01 ± 0.39 | -1.03 ± 0.15 |
| UGCUAGCAAUAUUACGCGCA | -1.97 ± 0.23 | -0.803 ± 0.2 |
| UGCUAGCAAUAUUACGCUAG | -2.28 ± 0.22 | -2.65 ± 0.34 |
| UGCUAGCAAUAUUACGCUCA | -0.263 ± 0.15 | 0.646 ± 0.16 |
| UGCUAGCAAUAUUACGGAAC | -1.04 ± 0.5 |  |
| UGCUAGCAAUAUUACGGCAC | -3.7 ± 0.42 | -2.19 ± 0.39 |
| UGCUAGCAAUAUUACGGUCA | 0.0813 ± 0.11 | 0.529 ± 0.13 |
| UGCUAGCAAUAUUACGGUGC | -3.92 ± 0.27 | -2.38 ± 0.26 |
| UGCUAGCAAUAUUACGUACA | 0.0476 ± 0.1 | 0.533 ± 0.17 |
| UGCUAGCAAUAUUACGUAUU | -3.06 ± 0.18 | -1.72 ± 0.24 |
| UGCUAGCAAUAUUACGUCAA | -1.87 ± 0.13 | -1.13 ± 0.12 |
| UGCUAGCAAUAUUACGUGCA | -2.54 ± 0.32 | -1.99 ± 0.28 |
| UGCUAGCAAUAUUACGUGGU | -3.36 ± 0.22 | -2.13 ± 0.24 |
| UGGAAGCAAUAUUACGAACA | -0.687 ± 0.13 | -0.937 ± 0.17 |
| UGGAAGCAAUAUUACGAAUA | 0.136 ± 0.41 | -0.685 ± 0.28 |
| UGGAAGCAAUAUUACGACGA | 0.0371 ± 0.18 | -0.862 ± 0.15 |
| UGGAAGCAAUAUUACGAGCU | -1.95 ± 0.16 | -0.801 ± 0.15 |
| UGGAAGCAAUAUUACGAUAU | -2.59 ± 0.18 | -2.39 ± 0.21 |
| UGGAAGCAAUAUUACGAUGU | -1.75 ± 0.21 | -2 ± 0.22 |
| UGGAAGCAAUAUUACGCAGU | -2.85 ± 0.4 | -1.6 ± 0.18 |
| UGGAAGCAAUAUUACGCCAU | -3.64 ± 0.28 | -2.07 ± 0.36 |
| UGGAAGCAAUAUUACGCCCU | -0.2 ± 0.14 | -0.0341 ± 0.18 |
| UGGAAGCAAUAUUACGCGAC | -2.77 ± 0.37 |  |

| Sequence | self-splicing fitness (ln) (30 °C) | self-splicing fitness (ln) (37 °C) |
| --- | --- | --- |
| UGGAAGCAAUAUUACGCGCC | -3.22 ± 0.32 | -1.54 ± 0.31 |
| UGGAAGCAAUAUUACGCUGA |  | -0.713 ± 0.4 |
| UGGAAGCAAUAUUACGGAGA | -2.7 ± 0.22 | -1.31 ± 0.13 |
| UGGAAGCAAUAUUACGGAUA | -0.862 ± 0.084 | -1.04 ± 0.088 |
| UGGAAGCAAUAUUACGGGAU | -1.89 ± 0.17 | -2.46 ± 0.28 |
| UGGAAGCAAUAUUACGGUCU | -1.94 ± 0.14 | 0.0438 ± 0.16 |
| UGGAAGCAAUAUUACGUCGA | -1.02 ± 0.072 | -0.272 ± 0.089 |
| UGGAAGCAAUAUUACGUCGU | -2.12 ± 0.18 | -2.19 ± 0.25 |
| UGGAAGCAAUAUUACGUCUG | -2.56 ± 0.25 | -1.52 ± 0.2 |
| UGGAAGCAAUAUUACGUUUG | -0.722 ± 0.082 | -0.645 ± 0.13 |
| UGGCAGCAAUAUUACGAAAA | -0.512 ± 0.082 | -0.934 ± 0.1 |
| UGGCAGCAAUAUUACGAAGA | -1.98 ± 0.2 | -1.41 ± 0.2 |
| UGGCAGCAAUAUUACGACCA | -0.399 ± 0.2 | -0.654 ± 0.2 |
| UGGCAGCAAUAUUACGAGAC | -3.74 ± 0.48 | -1.09 ± 0.45 |
| UGGCAGCAAUAUUACGAUAU | -2.5 ± 0.16 | -1.37 ± 0.21 |
| UGGCAGCAAUAUUACGAUCC | -0.653 ± 0.3 | -0.564 ± 0.29 |
| UGGCAGCAAUAUUACGCCCG | -0.568 ± 0.14 | -0.317 ± 0.21 |
| UGGCAGCAAUAUUACGCCUU | -1.65 ± 0.14 | -0.596 ± 0.21 |
| UGGCAGCAAUAUUACGCGAG | -1.96 ± 0.1 | -0.954 ± 0.097 |
| UGGCAGCAAUAUUACGCUAU | -3.89 ± 0.25 | -1.8 ± 0.2 |
| UGGCAGCAAUAUUACGCUUC | -2.18 ± 0.28 |  |
| UGGCAGCAAUAUUACGGCGU | -1.32 ± 0.12 | -0.678 ± 0.14 |
| UGGCAGCAAUAUUACGGCUG | -3.05 ± 0.33 | -2.38 ± 0.46 |
| UGGCAGCAAUAUUACGGGCG | 0.162 ± 0.071 | 0.586 ± 0.1 |
| UGGCAGCAAUAUUACGGGCU | -3.06 ± 0.16 | -2.02 ± 0.15 |
